Values after ≈ are worked out from the molar mass of the structure shown. Peptide text beside a SMILES is read from it. * marks the point of attachment. Lauroyl = CCCCCCCCCCCC(=O)* Bounds are passed on as bounds.

Five compounds from US20240327455A1, “HIGH-AFFINITY SUPRAMOLECULAR POLYMERS FOR BINDING-TRIGGERED ANTIBODY PRECIPITATION AND PURIFICATION” (The Johns Hopkins University, priority 2021, published 2024) can be followed below.

Data set [1] can be described thus: Solubility limit of filler molecule in PBS. The class given is physicochemical. Particulars: in PBS (pH 7.4).
Data set [2] is described as follows: CMC measurement with Nile Red. Format: physicochemical. Particulars: ligand molecules in PBS. How it is done: CMC measurement. The CMCs of the ligand molecules in PBS were determined using Nile Red, a hydrophobic dye that undergoes changes in both fluorescence intensity and emission wavelength (a blue-shift) upon partition into the hydrophobic domains of supramolecular assemblies. Nile Red was initially dissolved in acetone at 20 μM and 10 μl aliquots were loaded into several centrifuge tubes. After the acetone evaporated under room temperature. 500 μl fresh ligand solutions in PBS at various concentrations were added into the centrifuge tubes containing dry Nile Red and aged overnight for assembly. Fluorescent spectra of Nile Red were then monitored by a Fluorolog fluorometer (Jobin Yvon, Edison, NJ, USA) with fixed excitation wavelength at 560 nm; emission spectra were monitored at 580-720 nm. The ratio of the emission intensity at 635 nm (emission maximum of Nile red in a hydrophobic environment) to that at 660 nm (emission maximum of Nile red in an aqueous environment) was then plotted against the tested concentrations to obtain a transition curve, and the CMC value was determined by the intersection of the two fitting lines.

Data set [3] in a line: Self-assembly and TEM imaging (filament diameter). The class given is physicochemical. Particulars: self-assembled in PBS pH 7.4; mean±SD (n=30). How it is done:
Self-Assembly, Co-Assembly, and TEM Imaging. For self-assembly, filler or ligand molecules were dissolved in PBS (20 mM sodium phosphate, 150 mM sodium chloride, pH 7.4) to reach a final concentration of 2.5 mM or 400 μM, respectively, and aged for 24 hours at room temperature. To construct co-assembled IFs, filler and ligand molecules were pretreated with hexafluoroisopropanol (HFIP) to eliminate any pre-existing nanostructures that could be possibly formed during the synthesis and purification process. After HFIP evaporation, filler and ligand molecules were dissolved in PBS (20 mM sodium phosphate, 150 mM sodium chloride, pH 7.4) to reach desired concentrations and aged for 24 hours at room temperature. 10 μl stock of each sample solution was then spotted on carbon film coated copper grids with 400 square mesh (Electron Microscopy Sciences, Hatfield, PA, USA) and the excess was removed with filter paper to leave a thin film of sample on the grid. After letting the sample dry for 5 minutes, 10 μl 2% uranyl acetate was added to the sample grid, and the excess was removed after 30 seconds. All samples were dried for at least three hours before imaging. Bright-field TEM imaging was performed on a FEI Tecnai 12 TWIN Transmission Electron Microscope and all TEM images were required by a SIS Megaview III wide-angle CCD camera.

Data set [4] concerns the target T1, pure mAb1 (Homo sapiens, UniProt P01857).
T1 construct: host or cells: CHO is stated only for the clarified harvest
Put plainly: mAb precipitation experiment with co-assembled IFs. As to conditions: for mAb precipitation yield at optimal O16 concentration: 2.5 mM filler. How it is done: mAb Precipitation Experiment. IF stock solutions at desired filler and ligand concentrations were prepared one day before the precipitation experiment. In experimental groups, pure mAb1 from a concentrated solution (448 μM, 64.5 g/L) was then added into 100 μL IF solutions to reach a desired final concentration and incubated for 30 minutes at room temperature. The solution was then centrifuged at 15000 rpm for 15 minutes. For the 1M salt group, ammonium sulfate was added to the mAb-IF mixtures to reach a final concentration of 1M and incubated for another 30 minutes before centrifugation. The supernatant was taken out and analyzed by ProA-HPLC (POROS™ A 20 μm Column, Stainless Steel, 2.1×30 mm, 0.1 mL) to determine the protein concentrations. The precipitated amount of each species was calculated by subtracting the amount in the supernatant from the amount added. The precipitation yield was calculated by dividing […].

A further data set has as its target T2, mAb1 (Homo sapiens, UniProt P01857).
T2 construct: host or cells: CHO is stated only for the clarified harvest
The experiment in a line: Turbidity of mAb1-IF mixture (absorbance at 350 nm). As to conditions: 40 μM mAb1, 2.5 mM filler, 250 μM O16, absorbance at 350 nm.

Data set [5] addresses T1, pure mAb1. The experiment in a line: Sequential precipitation and mAb elution using IF solutions. How it is done: Sequential Precipitation and mAb Elution Using IF Solutions. Three IF stock solutions. IF1 (2.5 mM filler, 250 μM O16). IF2 (2.5 mM filler, 750 μM O16), and IF3 (2.5 mM filler. 200 μM O16), were prepared one day before the precipitation experiment. Pure mAb1 from a concentrated solution (448 μM, 64.5 g/L) was added into 100 uL IF1 and 100 uL IF2 to reach a desired final concentration of 40 μM and 80 μM, respectively. After a 4-hour incubation, the samples were then centrifuged at 15000 rpm for 15 minutes and the supernatant was transferred to 100 uL IF3 for another 4-hour incubation and subsequent centrifugation. 200 μL PBS and 400 μL elution buffer (40 mM sodium acetate. pH 3.7) were then used to wash and resuspend the precipitates from the two precipitation steps. The supernatant from each precipitation step, wash step, and elution step were analyzed by ProA-HPLC (POROS™ A 20 μm Column, Stainless Steel, 2.1×30 mm, 0.1 mL) to determine mAb concentration.

The target in data set [6] is T3, mAb1 in clarified CHO cell culture harvest (Homo sapiens, UniProt P01857).
T3 construct: host or cells: Chinese hamster ovary (CHO) cells; harvest clarified by depth filtration
The experiment in a line: Purification of mAb1 from clarified cell culture harvest. Particulars: sequential precipitation, no salt. The procedure: Purification of mAb1 from Clarified Cell Culture Harvest. mAb1 at clarified bulk state were incubated with optimized IFs (100 μL) at a concentration of 40 μM or 80 μM for 30 minutes. Same procedures were performed to precipitate mAb1 and obtain the centrifuged pellets. The pellets were then resuspended in […] (400 μL, 40 mM sodium acetate. pH 3.7) and transferred to a dialysis tube (Pur-A-Lyzer Maxi, 50 kDa cut-off molecular weight. Sigma-Aldrich. St. Louis, MO. USA). The resuspended solution was then dialyzed against 40 mM sodium acetate (1 L) at pH 3.7 for 24 hours with dialysis buffer replaced three times. The protein, filler, and ligand concentrations were determined by ProA-HPLC and RP-UPLC.

For data set [7], the target named is T1, pure mAb1. Put plainly: Sequential precipitation of high mAb titers using lyophilized IFs. As to conditions: lyophilized IFs (2.5 mM filler, 400 μM O16); for mAb precipitation yield after six precipitation steps: no salt. The procedure: Sequential Precipitation of High mAb Titers Using Lyophilized IFs. Six lyophilized IF stock powders (IF4-IF9) were prepared such that upon dissolution in 100 μL, the concentrations of the filler and O16 would be 2.5 mM and 400 μM, respectively. Lyophilized IF powders were prepared one day before the precipitation experiment. The IFs were allowed to co-assemble in water for 24 hours prior to lyophilization. Pure mAb1 from concentrated stock solutions of either (146 μM, 21 g/L) or (215 μM, 31 g/L) was added to the lyophilized IF4. After a 1-hour incubation, the samples were centrifuged at 15000 rpm for 15 minutes. Following centrifugation, the volume of supernatant was measured and fresh PBS was added until a final supernatant volume of 100 μL was reached. The 100 μL supernatant following the first precipitation step was then added to the next lyophilized IF stock powder (IF5) and allowed to incubate for another hour. This process of incubation, centrifugation, and supernatant transfer was repeated until all six lyophilized IFs (IF4-IF9) had been used for mAb precipitation. The supernatants after the first, third, and sixth precipitation steps were analyzed using ProA-HPLC to measure the cumulative amount of mAbs remaining throughout the precipitation process.

Data set [8] addresses T1, pure mAb1. The experiment in a line: mAb precipitation experiment with co-assembled IFs. Particulars: 40 μM mAb1, 2.5 mM filler.

T1 sequence (P01857 1-330 isoform P01857-1): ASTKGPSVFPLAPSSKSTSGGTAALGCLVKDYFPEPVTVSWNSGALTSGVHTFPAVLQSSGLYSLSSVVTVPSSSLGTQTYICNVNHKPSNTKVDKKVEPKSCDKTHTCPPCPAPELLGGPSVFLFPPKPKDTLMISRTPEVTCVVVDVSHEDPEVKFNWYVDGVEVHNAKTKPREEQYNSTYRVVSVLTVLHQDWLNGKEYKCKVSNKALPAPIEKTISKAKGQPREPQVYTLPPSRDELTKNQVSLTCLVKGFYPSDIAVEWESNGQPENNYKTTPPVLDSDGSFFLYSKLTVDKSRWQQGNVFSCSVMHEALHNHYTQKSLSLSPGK
T3 sequence (P01857 1-330 isoform P01857-1): as above
T2 sequence (P01857 1-330 isoform P01857-1): as above

Broadly, the solubility is how much of the substance goes into solution per volume. Higher therefore signals a readily soluble substance. Regarding `CCCCCCCCCCCC(=O)N[C@H](C(=O)N[C@H](C(=O)N[C@@H](CCC(=O)O)C(=O)N[C@@H](CCC(=O)O)C(=O)O)C(C)C)C(C)C` [C12-VVEE] (Lauroyl-VVEE-OH; N-terminus and C-terminus assumed), in [1], the solubility stood at 2500 µM (≈ 1640 µg/mL).

“O12: ligand molecule C12-VVKK[Linker]Z33, linker OEG12” returned a CMC in [2] of 8.5 µM. The “diameter of self-assembled filamentous structures (TEM)” value (“diameter” for short) in [3] is 13.6±1.2 nm.

Regarding “O16: ligand molecule C12-VVKK[Linker]Z33, linker OEG16”, the CMC in data set [2] stood at 10.5 µM. Further, the “diameter” value in [3] is on record as 14.9±1.3 nm. Besides, the mAb precipitation yield with pure mAb1 [4] (40 μM mAb1, 2.5 mM filler, 250 μM O16, binding time 30 minutes) is recorded as 83%; in the data set with pure mAb1 [4] (40 μM mAb1, optimal IFs (2.5 mM filler, 250 μM O16), 1 M salt) it was “More than 99%”; in the data set with pure mAb1 [4] (40 μM mAb1, optimal IFs (2.5 mM filler, 250 μM O16), no salt), 88%; with pure mAb1 [8] (250 μM O16, binding time 2 hours), 88%; with pure mAb1 [8] (250 μM O16, binding time 24 hours), 92%. Also, the “mAb precipitation yield at optimal O16 concentration” value with pure mAb1 [4] (40 μM mAb1, no salt) was “around 85%”; with pure mAb1 [4] (80 μM mAb1, no salt) it was “around 85%”; in the data set with pure mAb1 [4] (133 μM mAb1, no salt) it was “about 65%”. In addition, the “O16 concentration giving the best mAb precipitation yield” value in the data set with pure mAb1 [4] (100 μL mAb1 at 10 μM and 20 μM with 100 μL IFs) is 200 µM. Besides, in the data set with mAb1, the “time to turbidity plateau” value is no more than 30 min. Also, the “mAb1 precipitated in first precipitation” value with pure mAb1 [5] (40 μM pure mAb1, IFs with 250 μM O16, no salt) was “More than 82%”; in the data set with pure mAb1 [5] (80 μM pure mAb1, IFs with 750 μM O16, no salt), “More than 82%”. Moreover, the elution yield in the data set with pure mAb1 [5] (40 μM pure mAb1, elution buffer 40 mM sodium acetate pH 3.7) is recorded as roughly 88%; with pure mAb1 [5] (80 μM pure mAb1, elution buffer 40 mM sodium acetate pH 3.7), roughly 88%. The “final precipitation yield after two sequential precipitations” value with pure mAb1 [5] (40 μM pure mAb1, second step IFs with 200 μM O16, no salt) is listed as “greater than 97%”; in the data set with pure mAb1 [5] (80 μM pure mAb1, second step IFs with 200 μM O16, no salt), “greater than 97%”. Moreover, the entries for the “mAb1 precipitation yield from clarified cell culture harvest” value in data set [6] (40 μM mAb1 CB) and in data set [6] (80 μM mAb1 CB) were “more than 86%” and greater than 90%, respectively. For the same compound, the “mAb precipitation yield after six precipitation steps” value is reported as 96% with pure mAb1 [7] (21 mg/mL pure mAb) and 98% with pure mAb1 [7] (31 mg/ml pure mAb). The “mAb precipitation yield after first precipitation step” value with pure mAb1 [7] (21 or 31 mg/mL mAb) is recorded as “around 20%”. In the data set with pure mAb1 [7] (21 or 31 mg/mL mAb), the “mAb precipitation yield after three precipitation steps” value was roughly 80%.

“O36: ligand molecule C12-VVKK[Linker]Z33, linker OEG36” gave a CMC in [2] of 9.1 µM. Moreover, in [3], the “diameter” value was found to be 18.5±1.8 nm. Also, the “yield discrepancy between 1M salt and no salt groups” value with pure mAb1 [4] (20 μM mAb1, 2.5 mM filler, 100 μM ligand) is recorded as “less than 10%”. In addition, in the data set with pure mAb1 [4] (all conditions (20 and 40 μM mAb1, 1 M salt or no salt)), the “mAb precipitation yield, ranking among ligands” value is “best mAb precipitation yields in all conditions”.

With “P2000: ligand molecule C12-VVKK[Linker]Z33, linker PEG2000”, in [2], the CMC was 8.1 µM. The “diameter” value in [3] was 19.3±2.0 nm.
